The results in this text go back to the DeepSol protein solubility set.

The series can be described thus: soluble on expression in E. coli; label from the status in PepcDB or PDB records.
On to “MAFRKRRHDSEGDSDEERLPINKDEDEDLKAEPAKKSKNMWSDMLLEEQLLEKGQQINLDRTSRKQPNVSRGPESYLMPQDEFQRKQSRNANQKKKNEVFDKPVVLVTPASDDLFGDAPSALNEDFGVKKNDVKLPKDDEAGWWGKKGANKRYNDRMGYHSGGPRQPYPRKTTGQLMASEYSLESMVAAEFAPNLSTKELGTQMAAAMGEKDPDTVKKITNAIGSELSIKLFNETKEIEQNGGMKTADGSRRRTPGGVFITLFKMDSSVSREIKDGIFGDMRNAEKERTKKKKGEKQFTRQLEDMKKTMELAAQAETDLANEEQLATAVDAPFSDDAVDMV”, for which the “soluble on expression in E. coli” value is on record as “not soluble”.

As for “MAFSAPEPELSVVVPTLNEAETVATLLAALAAQRDVALELLLCDGGSTDGTAALVRGRAGDLPFPVTVTETPPGRGRQMNAGAAAARGATFLFLHADSIIADPLALRRGLDHLAAARRSDKRAAGHFRLRFAGDSPSPLAYRFYERKARLHRPGCTHGDQGLLIPREFFDQVGPFDEGLPILEDVRLAERIAAMGTWVLLPAEIITSARRFETEGLRERQTLNAILMNFAAIGWQQGVEELVAGYRSQDRSGRLRLGPHLARIAGLTAALPRQERLRLWYLTGGYVRGNAWQIPLFLDVRNAWRRGGDDGATPLLSLHDRWFDLLTDNPAGRAAAALMTFLWFRLTLRREMKDWPGILRTPLEHHHHHH”, the “soluble on expression in E. coli” value is on record as “not soluble”.

Take “MAGDPMAYQQGKQGQNVEKESTRQQETKPIHVKDTTQETKDNGTRTDIAKHLVSVAEKNPDVKDATAVVLGGYAVVGIDVDDTLDRSKVETIKYSVAQALKNDRYGANAVVIADPDTVSRLREMSREISEGHPVTGILDELAAIVGRVLPEVPNDVIDNEDEPQTKQQNDQLNRKQQQEMEKEQNDQSDHHMKKNNNDLEHHHHHH”: the “soluble on expression in E. coli” value was “soluble”.

As to “MAGDPMGTLKLIQYPSQLLSLTISDIINKQNLSQLIQKSKKDDSENWEGKDWIIKNTPQQGINWIGEHPNIKAVIIKTKDGSYADDGWKNNEKTIYSYSFKAAKGIINFNDSANRVLINQPISNYPILLFTDSSNKWEFQGCFKIIDILEKAVILEKMISFPSLNDKNSDNDDVILYKNEHTEGKIKYITHMLSERNRKIIDEIKDNSQWVCDICEIKFLDKYGKNYIEAHHKIPIHTFTGEHRILKTDFALLCPNCHKAVHIYLREENLQYEEAKIKIRNILKRLEHHHHHH”, the “soluble on expression in E. coli” value is recorded as “not soluble”.

For “MAGDPMKVAFITLGCRVNSYESEAMAEKFIKSGWEIVDNDEKADAYVINTCTVTNMGDRKSRQMISRARKANKDAVIAAVGCYSQVEPEKVAEIEGVDIVLGTKNKGDIIHYVNKFIEERNQIVNVKDVFTDKKFEDLNIDEYQDKTRAFLKIQDGCNRFCSYCLIPYARGGVCSKNPEKVIGEIKRLAEHGFKEIILSGIHIASYGDDLKGDWNLISIIEKAEQIDGIERIRIGSIEPRFFDEDTISKIKNMKKMCPHFHLSLQSGCTETLERMNRKYTAEEYKEIVYKLRENISDVSITTDVIVGFPGETDEEFEKTYDFLKEIELAKMHVFKYSPREGTKAAAMKNQINGNVKDKRSAELIELDKINEKKFMSKFLDREMDVLFEKKLEENEDLYEGYTPNYIKVVVKSSEDISRKILKVKLTEIQDEHLLGELILYKLEHHHHHH”, the “soluble on expression in E. coli” value is recorded as “soluble”.

On to “MAGDPMNEEQRKASSVDVLAERDKKAEKDYSKYFEHVYQPPNLKEAKKRGKQEVRYNRDFQIDEKYRGMGNERTFLIKTYGCQMNAHDTEVIAGILEALGYQATTDINTADVILINTCAIRENAENKVFSEIGNLKHLKKERPDILIGVCGCMSQEESVVNKILKSYQNVDMIFGTHNIHHLPEILEEAYLSKAMVVEVWSKEGDVIENLPKVREGNIKAWVNIMYGCDKFCTYCIVPFTRGKERSRRPEDIIDEVRELAREGYKEITLLGQNVNSYGKDLQDIEYDLGDLLQAISKIAIPRVRFTTSHPWDFTDHMIDVISEGGNIVPHIHLPVQSGNNAVLKIMGRKYTRESYLDLVKRIKDRIPNVALTTDIIVGYPNESEEQFEETLTLYDEVGFEHAYTYLYSQRDGTPAAKMKDNVPLNVKKERLQRLNKKVGHYSQIAMSKYEGQTVTVLCEGSSKKDDQVLAGYTDKNKLVNFKAPKEMIGKLVEVRIDEAKQYSLNGSFVKEVEPEMVIQLEHHHHHH”, for which the “soluble on expression in E. coli” value is “soluble”.

As to “MAGDPMNNNSKNNSRNVVTMNQASQSYAAQESSKMCLFEPRVFSDTQDIADELKNRRATLVNLQRIDQVSAKRIIDFLSGTVYAIGGDIQRVGTDIFLCTPDNVEVAGSITDHIENMEQHYELEHHHHHH”, the “soluble on expression in E. coli” value is reported as “not soluble”.

As for “MAGDPMSGSKTSAEKKESETEKSSDIAQVKIKDVSYTLPSKYDKSTSDDQLVLKVNVAVKNTGKDPLNVDSMDFTLYQGDTKMSDTDPEDYSEKLQGSTINADKSVEGNLFFVVDKGKQYELNYTPESYGDKKPKSVTFKIDGKDKKILATADKLQDSAKALSAYVDVLLFGKDNADFEKITGANKNEIVNDFNESAKDGYLSASGLSSTYADSKALDNIVNGIKEGLSKNSSIQAKTTSISKDEAIVEATVKPVDASSLSDRIEDKVKDYYSKNSSASYEEAVKYALQVYPEEFKKLGPASSEKTVEVKMKKNDIDQWQLDMDDYRAAELVEAFIKELEHHHHHH”, the “soluble on expression in E. coli” value is given as “soluble”.

Regarding “MAGDPMSRPPVPPFTCKTAIEKVRLAEDGWNSRDAAKVALAYTVDTRWRNRVEFATNREEAQAFLTRKWNREHEYRLIKELWAFTGNRIAVRYAYEYRDDNGQWFRAYGNENWEFAEDGLMAHRHACINEMPIAESDRLYHWPLGRRPDDHPSLTDLGLLEHHHHHH”, the “soluble on expression in E. coli” value was “not soluble”.

Consider “MAGDPMVTQNKKILIITGSFGNGHLQVTQSVVNQFKEMNLDNLTVIEHDLFLEAHPILTSICKKWYINSFKYFRNMYKAFYYSQPDQLDKCFYKYYGLNKLMNLLLKEKPDLILLTFPTPVMSVLTEQFDMNIPIATVMTDYRMQKNWITPFSQRYYLATEELKDEFASIGIPKDKLKVTGIPISDKFETDIDKTAWLSQNHLDPDKPTILMSAGAFGVSKGFGQMIQEILNRSPHAQVVMICGKNKDLKRSLTSQFKDFNNVLILGYTKHMNEWMASSQLMITKPGGITISEALTRQIPMIFLDPAPGQELENAVYFEEKGYGRIANTPEAAIEQVAALTNAPTKLASMSESMDASRIPYSTYKLCKDLLNLLNHSSHYEEVYGKVPLYAKLFVKLEHHHHHH”, for which the “soluble on expression in E. coli” value is listed as “not soluble”.

Consider “MAGEILVIGGGISGLTAAIEAAETGYDVILLEKNPYLGGRVSQLNKYFPKLCPPFCGLEILFKRMKSTPKLKYFTNAEVQEISGESGNFTVKVKLKPRYVNENCTACGACKEVCPIEAPDEYNFGLKKKKAIDLPNIMAMPFQYYIDDKYCNKCGECVSACKYNAIDLNEEEREMTLNVSSIIVATGWKPYDATKLDNLGYGKYKNVITNMEMERLASPNGPTGGVIQTMDGKPIETIAFVQCAGSRDENHLPYCSAICCLASLKQATYVREQYPDAKIYIFYIDIRAFGRYEDFFAKVKADEKIELIKGKVAKVEEVDGKLVVTAEDTLTGVKSKKEVDMVVLATGMQPAIEPIPGLELDEYGFVKPKPGIIPVGVAAMPMEVASANETATAAALKAIQLARRLEHHHHHH”, for which the “soluble on expression in E. coli” value is listed as “soluble”.

On to “MAGHSKWAQIKRKKAANDLKRGKLISKHLRAIQAAARAGGSPYPEANVQLRNAIEAARADDVPMENIERLLQKLQGGGEGAEQYEEIVYEGYAPGGVALLVYALTDNRNRTASEVRHVFSKHGGSLGTTGSVAWQFERRGVVVCENTEAAQEAAIELGALDLEEEGENLTVYTEPTEAYRIAEALKAKGVRVEAVEVVQHPQNTVALPPEEAQKVMRLVEALEDLDDVQHVYTNLDPESLQVEA”, for which the “soluble on expression in E. coli” value is recorded as “soluble”.

For the sequence “MAGHVHKVAVRQLKLLRYRNYFSFNIRFSGQHVVFTGHNGSGKTNLLEALSFLSPGRGLRRAAYSDVSFANGGGEGFVVFARLECALYGEVNIGTALEMSDNSRKVHINGVNETGDCLTDYCHMSILTPSMDGLFTGSSLERRRFLDRMVLAIDPLHSRRIADYDRVMRARNRLFLDGNEDCAWFDALEKQMAELATAISAARIDVIRLLNDMLARTPSQLPFPRAFLQIDGFLEAALSKISAVEVEEQFCDRLQHNRAIDRAAGRTLEGPHRTDLQVFYADKNMAAASCSTGEQKALLTGLVLCHARLTGLMSERTPILLLDEIVAHLDSHRRAALFDILDDLGGQTFMTGTDPILFNALKGRAEFFAIKDGTLLQ”, the “soluble on expression in E. coli” value is listed as “not soluble”.
